{"source": "patent US20070224186A1", "molecular_target": "EG(2)-HepN", "assay": "competitive ELISA with EG(2)-HepN; competitor N-terminally biotinylated hepcidin-(28-47)", "note": "Where no end group is shown, it is not given here.", "data": [{"binder": "PQQTGQLAELQPQDRAGARA (not fully specified (C-terminus))", "note": "[hepcidin-(28-47)]", "values": [{"measurement": "detection limit of the ELISA", "result": 0.1, "unit": "ng/well"}]}]}
